Assay results from article PMC9913818.

Legend:
Abl2 SH2 domain [1] = molecular target: Abl2 SH2 domain (UniProt P42684); experiment: SH2 domain microarray probed with fluorescent peptide; conditions: reference: unphosphorylated Tyr1510 peptide; sites Y1510
Abl1 SH2 domain [2] = molecular target: Abl1 SH2 domain (UniProt P00519); experiment: as above; conditions: reference: unphosphorylated Tyr1510 peptide; sites Y1510
Abl2 = Abl2 (UniProt P42684); experiment: co-immunoprecipitation with anti-Abl2; conditions: reference: vehicle (DMSO) treated cells; sites Y1510
Abl1 = Abl1 (UniProt P00519); experiment: co-immunoprecipitation with anti-Abl1; conditions: reference: vehicle (DMSO) treated cells; sites Y1510
Abl2 SH2 domain [3] = molecular target: Abl2 SH2 domain (UniProt P42684); experiment: GST pull-down from cell lysate; conditions: reference: vehicle (DMSO) treated cells; sites Y1510
Abl1 SH2 domain [4] = molecular target: Abl1 SH2 domain (UniProt P00519); experiment: GST pull-down from cell lysate; conditions: reference: vehicle (DMSO) treated cells; sites Y1510
[5] = molecular target: GST-tagged SH2 domain of Abl1 (human) (UniProt P00519); experiment: peptide or protein array; GST-tagged SH2 domains of 124 proteins and GST alone spotted in duplicate on nitrocellulose-coated slides; biotinylated IQGAP1 peptides on streptavidin-Cy3 as probes, 16 h at 4 °C in PBS-Tween with 3% milk and 3% BSA; fluorescence read
[6] = molecular target: GST-tagged SH2 domain of Abl2 (human) (UniProt P42684); experiment: as above
[7] = molecular target: endogenous Abl2 (H1993 cells) (human (endogenous in H1993)) (UniProt P42684); experiment: co-IP; endogenous proteins from H1993 cell lysates (Buffer A: 50 mM Tris-HCl pH 7.4, 150 mM NaCl, 1% Triton X-100); IP with anti-MET, anti-IQGAP1, anti-Abl1 or anti-Abl2, controls IgG or non-immune rabbit serum; for the Abl IPs cells also treated with 100 nM crizotinib or DMSO for 24 h
[8] = molecular target: endogenous Abl1 (H1993 cells) (human (endogenous in H1993)) (UniProt P00519); experiment: as above
[9] = molecular target: GST-tagged SH2 domain of Abl1 (human) (UniProt P00519); experiment: pull-down; GST-SH2 domains of Abl1 or Abl2, or GST, on glutathione-Sepharose, incubated with H1993 cell lysates for 3 h at 4 °C in Buffer A; cells treated with 100 nM crizotinib or DMSO for 24 h; Western blot for IQGAP1
[10] = molecular target: GST-tagged SH2 domain of Abl2 (human) (UniProt P42684); experiment: as above

IQGAP1 1502-1518 (from UniProt P46940) pTyr1510 peptide
other: array signal as percent of phosphopeptide signal (Abl2 SH2 domain [1]): gained; reference less than 0.5 | other: array signal as percent of phosphopeptide signal (Abl1 SH2 domain [2]): gained; reference less than 0.5

IQGAP1 (from UniProt P46940) 100 nM crizotinib (MET inhibitor), 24 h
other: percent decrease vs vehicle (Abl2): 75% | other: percent decrease vs vehicle (Abl1): 84% | other: percent decrease vs vehicle (Abl2 SH2 domain [3]): 92% | other: percent decrease vs vehicle (Abl1 SH2 domain [4]): 82%

biotinylated IQGAP1 peptide (amino acids 1502 to 1518) with non-phosphorylated Tyr1510 (from UniProt P46940 1502-1518)
percent of the binding of the tyrosine-phosphorylated peptide (array fluorescence) [5]: < 0.5% | percent of the binding of the tyrosine-phosphorylated peptide (array fluorescence) [6]: < 0.5%

endogenous IQGAP1 (H1993 cells) (from UniProt P46940 1-1657) (natural protein)
percent decrease of co-immunoprecipitated IQGAP1 after crizotinib against DMSO [7]: 75% | percent decrease of co-immunoprecipitated IQGAP1 after crizotinib against DMSO [8]: 84% | percent less IQGAP1 pulled down after crizotinib against DMSO [9]: 82% | percent less IQGAP1 pulled down after crizotinib against DMSO [10]: 92%
